Test results taken from patent US20260243766A1 (published 2026).

Biological target: R6A/Q72R
Assay: SPR

- Kd: 18.8 µM
B1: 10LH (scFv)
scFv: SRNGGDGQSVLTQPPSVSVSPGQTASITCSGDSLGNKYACWYQQKPGQSPVLVIYQDSKRPSGIPERFSGSNSGNTATLTISGTQAMDEADYYCQAWDSSRGYTVVFGTGTKVTVSSQTGGSGGGGSGGGGSGGGGSEVQLLESGGGLVQPGGSLRLSCAASGFTFDSYAMSWVRQAPGKGLEWVSAISGYGGSTYYADSVKGRFTISRDNSKNTLYLQMNSLRAEDTAVYYCAKYTYFLDAFDIWGQGTMVTVSSS
